Data reported in US20240309072A1 (Regeneron, published 2024).
Like-named read-outs stand apart in the source and are kept apart here.

Columns and labels:
Assay in all cases: cell-based or functional assay
SARS-COV-2 Spike, D614G [1] = biological target: T1, SARS-COV-2 Spike, D614G (SARS-COV-2, UniProt P0DTC2 14-1273)
[2] = biological target: T2, SARS-COV-2 Spike, Omicron variant BA.2 (SARS-COV-2, UniProt P0DTC2 14-1273)
[3] = biological target: T3, SARS-COV-2 Spike, Omicron variant BA.4/BA.5 (SARS-COV-2, UniProt P0DTC2 14-1273)
SARS-COV-2 Spike, D614G [4] = biological target: T1, SARS-COV-2 Spike, D614G; remark: listed apart in the source
[5] = biological target: SARS-COV-2 Spike, Omicron variant BA.2.75 (SARS-COV-2, UniProt P0DTC2 14-1273)
[6] = biological target: T2, SARS-COV-2 Spike, Omicron variant BA.2; remark: listed apart in the source
[7] = biological target: T3, SARS-COV-2 Spike, Omicron variant …; remark: listed apart in the source
[8] = biological target: SARS-COV-2 Spike, Omicron variant BA.2.12.1 (SARS-COV-2, UniProt P0DTC2 14-1273)
[9] = biological target: T4, SARS-COV-2 Spike, Omicron variant BA.1 (SARS-COV-2, UniProt P0DTC2 14-1273)
SARS-COV-2 Spike, D614G [10] = biological target: T1, SARS-COV-2 Spike, D614G; remark: listed apart in the source
[11] = biological target: T4, SARS-COV-2 Spike, Omicron variant BA.1; remark: listed apart in the source

Binder | Fold Change over R10933 + R10987 against D614G (SARS-COV-2 Spike, D614G [1]) [fold] | pseudovirus neutralization IC50 (SARS-COV-2 Spike, D614G [1]) [pM] | Fold Change over R10933 + R10987 against D614G [2] [fold] | pseudovirus neutralization IC50 [2] [pM] | Fold Change over R10933 + R10987 against D614G [3] [fold] | pseudovirus neutralization IC50 [3] [pM] | Fold Change over R10933 + R10987 against D614G [5] [fold] | pseudovirus neutralization IC50 [5] [pM] | Fold change over R10987 against D614G [6] [fold] | pseudovirus neutralization IC50 [6] [pM] | Fold change over R10987 against D614G [7] [fold] | pseudovirus neutralization IC50 [7] [pM] | Fold change over R10987 against D614G [8] [fold] | pseudovirus neutralization IC50 [8] [pM] | Fold Change over R10933 + R10987 against D614G [11] [fold] | pseudovirus neutralization IC50 [11] [pM] | other results
REGN10933 + REGN10987 (other) VH 1: QVQLVESGGGLVKPGGSLRLSCAASGFTFSDYYMSWIRQAPGKGLEWVSYITYSGSTIYYADSVKGRFTISRDNAKSSLYLQMNSLRAEDTAVYYCARDRGTTMVPFDYWGQGTLVTVSS VL 1: DIQMTQSPSSLSASVGDRVTITCQASQDITNYLNWYQQKPGKAPKLLIYAASNLETGVPSRFSGSGSGTDFTFTISGLQPEDIATYYCQQYDNLPLTFGGGTKVEIK VH 2: QVQLVESGGGVVQPGRSLRLSCAASGFTFSNYAMYWVRQAPGKGLEWVAVISYDGSNKYYADSVKGRFTISRDNSKNTLYLQMNSLRTEDTAVYYCASGSDYGDYLLVYWGQGTLVTVSS VL 2: QSALTQPASVSGSPGQSITISCTGTSSDVGGYNYVSWYQQHPGKAPKLMIYDVSKRPSGVSNRFSGSKSGNTASLTISGLQSEDEADYYCNSLTSISTWVFGGGTKLTVL | 1 | 14.7 | 326 | 4770 | 230 | 3370 | – | – | – | – | – | – | – | – | – | – | pseudovirus neutralization IC50 (SARS-COV-2 Spike, D614G [4]): 12 pM
REGN10933 (antibody, V domains shown) VH: QVQLVESGGGLVKPGGSLRLSCAASGFTFSDYYMSWIRQAPGKGLEWVSYITYSGSTIYYADSVKGRFTISRDNAKSSLYLQMNSLRAEDTAVYYCARDRGTTMVPFDYWGQGTLVTVSS VL: DIQMTQSPSSLSASVGDRVTITCQASQDITNYLNWYQQKPGKAPKLLIYAASNLETGVPSRFSGSGSGTDFTFTISGLQPEDIATYYCQQYDNLPLTFGGGTKVEIK | 1.98 | 29.1 | – | – | – | – | 148 | 2170 | – | – | – | – | – | – | – | – | –
REGN10987 (antibody, V domains shown) VH: QVQLVESGGGVVQPGRSLRLSCAASGFTFSNYAMYWVRQAPGKGLEWVAVISYDGSNKYYADSVKGRFTISRDNSKNTLYLQMNSLRTEDTAVYYCASGSDYGDYLLVYWGQGTLVTVSS VL: QSALTQPASVSGSPGQSITISCTGTSSDVGGYNYVSWYQQHPGKAPKLMIYDVSKRPSGVSNRFSGSKSGNTASLTISGLQSEDEADYYCNSLTSISTWVFGGGTKLTVL | 0.89 | 13.1 | 149 | 2180 | 236 | 3460 | – | – | 199 | 1060 | 176 | 933 | 279 | 1480 | – | – | –
REGN14315 (antibody, V domains shown) VH: QVQLVQSGAEVKKPGSSVKVSCKASGDTFSTYAINWVRQAPGQGLEWMGRFIHIFGTANYAQKFQGRVTITADESTSTAYMELRSLRSEDTAVYYCARDGVDYGDYRPDYWGQGTLVTVSS VL: EIVLTQSPGTLSLSPGERATLSCRASQSVSSNYLAWYQQKPGQAPRLLIYGASSRATGIPERFSGSGSGTDFTLTISRLEPEDFAVYYCQQYGSSLYTFGQGTKLEIK | 0.6 | 8.78 | 11.5 | 168 | 10.8 | 159 | 87 | 1280 | 6.78 | 35.9 | 9.38 | 49.7 | 12.7 | 67.3 | 2.76 | 40.4 | Fold change over R10987 against D614G [9]: 1.03 fold; pseudovirus neutralization IC50 [9]: 5.47 pM; Fold change over R10987 against D614G (SARS-COV-2 Spike, D614G [10]): 0.22 fold; pseudovirus neutralization IC50 (SARS-COV-2 Spike, D614G [10]): 1.15 pM
REGN14287 + REGN14315 (other) VH 1: QVQLVQSGAEVKKPGSSVKVSCKASGGTFSNNAISWVRQAPGQGLEWMGKIIPILGIGGDAQKFQGRFTITADKSTSTAYMELSSLRSEDTAVYYCANSGDSRPHAFDIWGQGTMVTVSS VL 1: QSALTQPASVSGSPGQSITISCTGTSSDVGSYNLVSWYQQHPGKAPKLMIYEVSKRPSGVSNRFSGSKSGNTASLTISGLQAEDEADYYCSSYAGSRREVFGGGTKLTVL VH 2: QVQLVQSGAEVKKPGSSVKVSCKASGDTFSTYAINWVRQAPGQGLEWMGRFIHIFGTANYAQKFQGRVTITADESTSTAYMELRSLRSEDTAVYYCARDGVDYGDYRPDYWGQGTLVTVSS VL 2: EIVLTQSPGTLSLSPGERATLSCRASQSVSSNYLAWYQQKPGQAPRLLIYGASSRATGIPERFSGSGSGTDFTLTISRLEPEDFAVYYCQQYGSSLYTFGQGTKLEIK | 0.76 | 11.1 | 9.75 | 143 | 14.9 | 219 | 20.5 | 300 | – | – | – | – | – | – | 6.11 | 89.6 | –
REGN14315 + REGN10987 (other) VH 1: QVQLVQSGAEVKKPGSSVKVSCKASGDTFSTYAINWVRQAPGQGLEWMGRFIHIFGTANYAQKFQGRVTITADESTSTAYMELRSLRSEDTAVYYCARDGVDYGDYRPDYWGQGTLVTVSS VL 1: EIVLTQSPGTLSLSPGERATLSCRASQSVSSNYLAWYQQKPGQAPRLLIYGASSRATGIPERFSGSGSGTDFTLTISRLEPEDFAVYYCQQYGSSLYTFGQGTKLEIK VH 2: QVQLVESGGGVVQPGRSLRLSCAASGFTFSNYAMYWVRQAPGKGLEWVAVISYDGSNKYYADSVKGRFTISRDNSKNTLYLQMNSLRTEDTAVYYCASGSDYGDYLLVYWGQGTLVTVSS VL 2: QSALTQPASVSGSPGQSITISCTGTSSDVGGYNYVSWYQQHPGKAPKLMIYDVSKRPSGVSNRFSGSKSGNTASLTISGLQSEDEADYYCNSLTSISTWVFGGGTKLTVL | – | – | – | – | – | – | – | – | 13.2 | 69.9 | 20.7 | 110 | 21 | 111 | – | – | Fold change over R10987 against D614G [9]: 3.18 fold; pseudovirus neutralization IC50 [9]: 16.9 pM; Fold change over R10987 against D614G (SARS-COV-2 Spike, D614G [10]): 0.7 fold; pseudovirus neutralization IC50 (SARS-COV-2 Spike, D614G [10]): 3.68 pM
REGN14287 (antibody, V domains shown) VH: QVQLVQSGAEVKKPGSSVKVSCKASGGTFSNNAISWVRQAPGQGLEWMGKIIPILGIGGDAQKFQGRFTITADKSTSTAYMELSSLRSEDTAVYYCANSGDSRPHAFDIWGQGTMVTVSS VL: QSALTQPASVSGSPGQSITISCTGTSSDVGSYNLVSWYQQHPGKAPKLMIYEVSKRPSGVSNRFSGSKSGNTASLTISGLQAEDEADYYCSSYAGSRREVFGGGTKLTVL | 6.18 | 90.6 | 1.94 | 28.4 | 3.41 | 50 | 3.94 | 57.8 | – | – | – | – | – | – | 3.28 | 48.1 | –
REGN14256 (antibody, V domains shown) VH: QVQLQESGPGLVKPSETLSLTCTVSGGSISSHYWSWIRQPPGKGLEWIGYIYYSGSSNYNPSLKSRVTISVDTSKNQFSLKLNSVTAADTAVYYCARHYDILTGFDWFDPWGQGTLVTVSS VL: QSVLTQPPSVSGAPGQRVTISCTGSSSNIGTHYDVHWYQQLPGTAPKLLIYGNSNRPSGVPDRFSGSKSGTSASLAITGLQAEDEADYYCQSFDNSLTAPYVFGTGTKVTVL | 0.77 | 11.4 | – | – | – | – | – | – | – | – | – | – | – | – | – | – | –
